Results from US20250152742A1, “COMPOSITIONS AND METHODS FOR NEUROLOGICAL DISEASES” (Trames Bio, Inc., priority 2022, published 2025).

Tested on: engineered chimeric receptor SEQ ID NO: 33 and its mutants (human α7-nAChR ligand binding domain / human GlyRα1 ion pore domain) in Lenti-X 293T cells
Experiment: YFP fluorescence quenching anion reporter plate reader assay (percent quench, EC50)
Type: cell-based
Settings: for YFP fluorescence quenching using CNL001 (percent quench): receptor named in row; for YFP fluorescence quenching using Varenicline, 3 nM var: ligand Varenicline 3 nM; for YFP fluorescence quenching using Varenicline, 30 nM var: ligand Varenicline 30 nM; for YFP fluorescence quenching using Varenicline, 300 nM var: ligand Varenicline 300 nM; for YFP fluorescence quenching using Varenicline, 500 nM var: ligand Varenicline 500 nM; for YFP fluorescence quenching using Varenicline, 1 uM var: ligand Varenicline 1 uM
Outline: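 Lenti-X 293T cells co-expressing an anion-quenchable YFP were transiently transfected with receptor DNA, then ligand was added in NaI-substituted buffer (pH 7.2) after 30 min at 37 °C. Fluorescence was read about 2 min; percent quench = mean of last 10 s over 15 s pre-ligand baseline.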

B1: CODA339: engineered receptor: L131D in SEQ ID NO: 33 (protein)
chain: MRCSPGGVWLALAASLLHVSLQGEFQRKLYKELVKNYNPLERPVANDSQPLTVYFSLSLLQIMDVDEKNQVLTTNIWLQMSWTDHYLQWNVSEYPGVKTVRFPDGQIWKPDILLYNSADERFDATFHTNVDVNSSGHCQYLPPGIFKSSCPMDLKNFPMDVQTCKLKFGSWSYGGWSLDLQMQEADISGYIPNGEWDLVGIPGKRSERFYECCKEPYPDVTFTVTMRRRMGYYLIQMYIPSLLIVILSWISFWINMDAAPARVGLGITTVLTMTTQSSGSRASLPKVSYVKAIDIWMAVCLLFVFSALLEYAAVNFVSRQHKELLRFRRKRRHHKSPMLNLFQEDEAGEGRFNFSAYGMGPACLQAKDGISVKGANNSNTTNPPPAPSKSPEEMRKLFIQRAKKIDKISRIGFPMAFLIFNMFYWIIYKIVRREDVHNQ
modifications: synthetic sequence of chimeric LGIC
1 nM CNL001, first column so headed
  YFP fluorescence quenching using CNL001 (percent quench): 73.711%
1 nM CNL001, second column so headed
  YFP fluorescence quenching using CNL001 (percent quench): 76.44%
1 nM brd (TC-5619/Bradanicline)
  YFP fluorescence quenching using TC-5619/Bradanicline (percent quench): 4.12%
3 nM brd (TC-5619/Bradanicline)
  YFP fluorescence quenching using TC-5619/Bradanicline (percent quench): 19.15%
10 nM CNL001, first column so headed
  YFP fluorescence quenching using CNL001 (percent quench): 77.049%
10 nM CNL001, second column so headed
  YFP fluorescence quenching using CNL001 (percent quench): 77.76%
10 nM brd (TC-5619/Bradanicline)
  YFP fluorescence quenching using TC-5619/Bradanicline (percent quench): 68.98%
30 nM TC-6683
  YFP fluorescence quenching using TC-6683 (percent quench): −18.32%
30 nM brd (TC-5619/Bradanicline)
  YFP fluorescence quenching using TC-5619/Bradanicline (percent quench): 77.29%
50 nM CNL001, first column so headed
  YFP fluorescence quenching using CNL001 (percent quench): 77.882%
50 nM CNL001, second column so headed
  YFP fluorescence quenching using CNL001 (percent quench): 78.708%
50 nM abt (ABT-126)
  YFP fluorescence quenching using ABT-126 (percent quench): −16.65%
100 nM CNL001, first column so headed
  YFP fluorescence quenching using CNL001 (percent quench): 79.567%
100 nM CNL001, second column so headed
  YFP fluorescence quenching using CNL001 (percent quench): 79.273%
100 nM CNL002
  YFP fluorescence quenching (percent quench): 12.83%
100 nM abt (ABT-126)
  YFP fluorescence quenching using ABT-126 (percent quench): −12.3%
100 nM azd0328
  YFP fluorescence quenching using AZD-0328 (percent quench): 62.87%
100 nM brd (TC-5619/Bradanicline)
  YFP fluorescence quenching using TC-5619/Bradanicline (percent quench): 81.41%
300 nM TC-6683
  YFP fluorescence quenching using TC-6683 (percent quench): −17.25%
300 nM abt (ABT-126)
  YFP fluorescence quenching using ABT-126 (percent quench): 18.5%
300 nM azd0328
  YFP fluorescence quenching using AZD-0328 (percent quench): 77.03%
300 nM brd (TC-5619/Bradanicline)
  YFP fluorescence quenching using TC-5619/Bradanicline (percent quench): 75.79%
1 uM CNL001, first column so headed
  YFP fluorescence quenching using CNL001 (percent quench): 79.992%
1 uM CNL001, second column so headed
  YFP fluorescence quenching using CNL001 (percent quench): 79.927%
1 uM CNL002
  YFP fluorescence quenching (percent quench): 77.73%
1 uM abt (ABT-126)
  YFP fluorescence quenching using ABT-126 (percent quench): 59.09%
1 uM brd (TC-5619/Bradanicline)
  YFP fluorescence quenching using TC-5619/Bradanicline (percent quench): 82.26%
3 uM TC-6683
  YFP fluorescence quenching using TC-6683 (percent quench): −10%
10 uM ach (acetylcholine)
  YFP fluorescence quenching (percent quench): 4.56%
30 uM CNL002
  YFP fluorescence quenching (percent quench): 80.58%
30 uM TC-6683
  YFP fluorescence quenching using TC-6683 (percent quench): −8.51%
30 uM azd0328
  YFP fluorescence quenching using AZD-0328 (percent quench): 78.63%
100 uM TC-6683
  YFP fluorescence quenching using TC-6683 (percent quench): −9.77%
100 uM ach (acetylcholine)
  YFP fluorescence quenching (percent quench): 10.19%
1 mM ach (acetylcholine)
  YFP fluorescence quenching (percent quench): 77.34%
3 mM ach (acetylcholine)
  YFP fluorescence quenching (percent quench): 77.79%
Ligand Facinicline 30 nM
  YFP fluorescence quenching using Facinicline, 30 nM fac: 12.67
Ligand Facinicline 300 nM
  YFP fluorescence quenching using Facinicline, 300 nM fac: 80.4
Ligand Facinicline 10 uM
  YFP fluorescence quenching using Facinicline, 10 uM fac: 82.18
Ligand Facinicline 30 uM
  YFP fluorescence quenching using Facinicline, 30 uM fac: 82.14
Ligand TC-6987 1 uM
  YFP fluorescence quenching using TC-6987, 1 uM tc6987: 50
Ligand TC-6987 3 uM
  YFP fluorescence quenching using TC-6987, 3 uM tc6987: 80.39
Ligand TC-6987 5 uM
  YFP fluorescence quenching using TC-6987, 5 uM tc6987: 79.93
Ligand TC-6987 10 uM
  YFP fluorescence quenching using TC-6987, 10 uM tc6987: 80.99
Ligand TC-6987 30 uM
  YFP fluorescence quenching using TC-6987, 30 uM tc6987: 83.11
Ligand TC-6987 50 uM
  YFP fluorescence quenching using TC-6987, 50 uM tc6987: 83.18
Ligand TC-6987 100 uM
  YFP fluorescence quenching using TC-6987, 100 uM tc6987: 82.16
Ligand TC-6987 300 uM
  YFP fluorescence quenching using TC-6987, 300 uM tc6987: 64.58
Ligand TC-6987 500 uM
  YFP fluorescence quenching using TC-6987, 500 uM tc6987: 76.77
First column
  YFP fluorescence quenching using Varenicline, 3 nM var: −0.902
  YFP fluorescence quenching using Varenicline, 30 nM var: −6.009
  YFP fluorescence quenching using Varenicline, 300 nM var: 49.328
  YFP fluorescence quenching using Varenicline, 500 nM var: 66.7
  YFP fluorescence quenching using Varenicline, 1 uM var: 70.85
Second column
  YFP fluorescence quenching using Varenicline, 3 nM var: −7.62
  YFP fluorescence quenching using Varenicline, 30 nM var: −3.447
  YFP fluorescence quenching using Varenicline, 300 nM var: 47.685
  YFP fluorescence quenching using Varenicline, 500 nM var: 64.798
  YFP fluorescence quenching using Varenicline, 1 uM var: 69.038
